Source: publication PMC4718548 (Structure (London, England : 1993), 2015)
Residue numbers refer to the chain shown, from its start. In names and notes the source's numbering stands.

How the values were obtained:
[1] = molecular target: Mycobacterium tuberculosis ribosome large subunit 50S (Mycobacterium tuberculosis (endogenous in Mtb MC2 7000)) (UniProt A5U0A0); test: co-sedimentation
[2] = molecular target: Mycobacterium tuberculosis ribosome large subunit 50S (Mycobacterium tuberculosis (endogenous in Mtb MC2 7000)) (UniProt A5U0A0); test: cryo-EM structure
[3] = molecular target: the molecule itself
[4] = molecular target: Mycobacterium tuberculosis ribosome large subunit 50S (Mycobacterium tuberculosis (endogenous in Mtb MC2 7000)) (UniProt A5U0A0)

Mycobacterium tuberculosis ribosome large subunit 50S (Mycobacterium tuberculosis (endogenous in Mtb MC2 7000)), sequence (A5U0A0 whole entry, looked up): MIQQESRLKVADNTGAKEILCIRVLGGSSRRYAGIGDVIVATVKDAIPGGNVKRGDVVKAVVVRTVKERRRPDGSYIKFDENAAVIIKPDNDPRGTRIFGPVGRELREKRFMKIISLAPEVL

Mycobacterium tuberculosis ribosome small subunit 30S (complex)
percent of 50S in the 70S form, without RsfS [1]: > 70%

B1: Mycobacterium tuberculosis ribosomal silencing factor RsfS, wild type, C-terminal His6 (natural protein)
chain: MTANREAIDMARVAAGAAAAKLADDVVVIDVSGQLVITDCFVIASGSNERQVNAIVDEVEEKMRQAGYRPARREGAREGRWTLLDYRDIVVHIQHQDDRNFYALDRLWGDCPVVPVDLSANSAGAQ
stoichiometry N [2]: 1

B2: Mycobacterium tuberculosis RsfS E74A, C-terminal His6 (natural protein)
chain: B1 chain with E74A
stoichiometry N [3]: 2

B3: Escherichia coli RsfS, wild type, C-terminal His6 (natural protein)
chain: MQGKALQDFVIDKIDDLKGQDIIALDVQGKSSITDCMIICTGTSSRHVMSIADHVVQESRAAGLLPLGVEGENSADWIVVDLGDVIVHVMQEESRRLYELEKLWS
inhibition in the Mtb ribosome cell-free translation assay [4]: 80%
